Experimental findings from patent US20240108716A1 are described below.

For test [1], the target named is SARS-CoV-2 S peptide 636 (C-GGG-…) (SARS-CoV-2). Briefly: ELISA, control for CPMV636 on immobilised peptide.
Test [2] concerns the target SARS-CoV-2 S peptide 1159 (C-GGG-…) (SARS-CoV-2). The test is described as follows: ELISA, control for CPMV1159 on immobilised peptide.
Test [3] has as its target SARS-CoV-2 S peptide 460 (C-GGG-FRKSN) (SARS-CoV-2). Briefly: ELISA, control for CPMV460 on immobilised peptide.
Test [4] concerns the target SARS-CoV-2 S peptide 570 (C-GGG-…) (SARS-CoV-2). The test is described as follows: ELISA, control for CPMV570 on immobilised peptide.
Test [5] has as its target SARS-CoV-2 S peptide 454 (C-GGG-…) (SARS-CoV-2). Briefly: ELISA, control for CPMV454 on immobilised peptide. Background: ELISA stands for enzyme-linked immunosorbent assay.
Test [6] concerns the target SARS-CoV-2 S peptide 820 (C-GGG-…) (SARS-CoV-2). Briefly: ELISA, control for CPMV820 on immobilised peptide.
In test [7] the target is SARS-CoV-2 S peptide 826 (C-GGG-…) (SARS-CoV-2). The test is described as follows: ELISA, control for CPMV826 on immobilised peptide.
Test [8] deals with SARS-CoV-2 S peptide 564 (C-GGG-…) (SARS-CoV-2). The test is described as follows: ELISA, control for CPMV564 on immobilised peptide.
For test [9], the target named is SARS-CoV-2 S peptide 153 (C-GGG-…) (SARS-CoV-2). Briefly: ELISA, control for CPMV153 on immobilised peptide.
In test [10] the target is SARS-CoV-2 S peptide 386 (C-GGG-…) (SARS-CoV-2). Briefly: ELISA, control for CPMV386 on immobilised peptide.
Test [11] concerns the target SARS-CoV-2 S peptide 469 (C-GGG-…) (SARS-CoV-2). Briefly: ELISA, control for CPMV469 on immobilised peptide.
In test [12] the target is SARS-CoV-2 S peptide 106 (C-GGG-…) (SARS-CoV-2). Briefly: ELISA, control for CPMV106 on immobilised peptide.
Test [13] concerns the target SARS-CoV-2 S peptide 420 (C-GGG-…) (SARS-CoV-2). The test is described as follows: ELISA, control for CPMV420 on immobilised peptide.

Turning to “Control plasma of the peptide ELISA of the CPMV-based COVID-19 vaccines (antibody)”, the endpoint IgG titer (reciprocal dilution) was found to be 100 in test [1]; 400 in test [2]; 1470 in [3]; 1600 in test [4]; 100 in test [5]; 800 in test [6]. Besides, the endpoint IgG titer (reciprocal dilution) came to 1600 in test [7]; 1600 in test [8]; 2130 in test [9]; 266 in test [10]; 1870 in test [11]; 400 in test [12]. In [13], this substance yielded an endpoint IgG titer (reciprocal dilution) of 400.
